The source of these data is IntAct's records for PubMed 12446441.

B1: Ras-related protein Rab-27A (Homo sapiens), P51159-1 (parent)
chain: MSDGDYDYLIKFLALGDSGVGKTSVLYQYTDGKFNSKFITTVGIDFREKRVVYRASGPDGATGRGQRIHLQLWDTAGQERFRSLTTAFFRDAMGFLLLFDLTNEQSFLNVRNWISQLQMHAYCENPDIVLCGNKSDLEDQRVVKEEEAIALAEKYGIPYFETSAANGTNISQAIEMLLDLIMKRMERCVDKSWIPEGVVRSNGHASTDQLSEEKEKGACGC
partner: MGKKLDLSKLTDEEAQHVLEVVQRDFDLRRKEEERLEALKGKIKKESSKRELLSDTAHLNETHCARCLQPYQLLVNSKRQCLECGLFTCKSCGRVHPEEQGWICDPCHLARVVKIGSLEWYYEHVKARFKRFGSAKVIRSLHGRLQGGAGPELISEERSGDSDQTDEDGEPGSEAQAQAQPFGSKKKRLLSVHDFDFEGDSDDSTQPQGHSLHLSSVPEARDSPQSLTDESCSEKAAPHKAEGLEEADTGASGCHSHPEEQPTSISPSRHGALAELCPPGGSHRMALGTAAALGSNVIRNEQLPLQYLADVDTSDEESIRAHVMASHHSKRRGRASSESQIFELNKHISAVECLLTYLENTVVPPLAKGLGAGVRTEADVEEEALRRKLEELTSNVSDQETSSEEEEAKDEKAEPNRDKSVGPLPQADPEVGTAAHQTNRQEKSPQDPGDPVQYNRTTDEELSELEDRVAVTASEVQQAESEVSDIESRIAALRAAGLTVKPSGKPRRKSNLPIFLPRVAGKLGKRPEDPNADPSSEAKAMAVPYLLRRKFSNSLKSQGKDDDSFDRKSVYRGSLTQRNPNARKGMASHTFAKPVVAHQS

In one assay the parent is B1. The following applies: with melph_human MLPH.
With W73S, the “effect of a mutation on the interaction” value is on record as “disrupting interaction strength”. Same read-out and setting: the value for W73G was “disrupting interaction strength”; that for W73L was “disrupting interaction strength”.

The variants in another assay derive from B1. The following applies: with melph_human MLPH. This is another data set of the same source.
On to T23N, for which the “effect of a mutation on the interaction” value is given as “disrupting interaction strength”.
